From PMC6102046 (Nature structural & molecular biology, 2017)

B1: 6X His/T7-tagged PERK luminal domain (PERK-LD) (domain or fragment, UniProt Q9Z2B5 29-510, looked up)
chain: VAPARSLLAPASETVFGLGAAAAPTSAARVPAVATAEVTVEDAEALPAAAGEPESRATEPDDDVELRPRGRSLVIISTLDGRIAALDAENDGKKQWDLDVGSGSLVSSSLSKPEVFGNKMIIPSLDGDLFQWDRDRESMEAVPFTVESLLESSYKFGDDVVLVGGKSLITYGLSAYSGKLRYICSALGCRRWDSDEMEEEEDILLLQRTQKTVRAVGPRSGSEKWNFSVGHFELRYIPDMETRAGFIESTFKPGGNKEDSKIISDVEEQEATMLDTVIKVSVADWKVMAFSRKGGRLEWEYQFCTPIASAWLVRDGKVIPISLFDDTSYTASEEALGDEEDIVEAARGATENSVYLGMYRGQLYLQSSVRVSEKFPTSPKALESVNGENAIIPLPTIKWKPLIHSPSRTPVLVGSDEFDKCLSNDKYSHEEYSNGALSILQYPYDNGYYLPYYKRERNKRSTQITVRFLDSPHYSKNIRKKD
B2: His-tagged CNPY2 wild type (natural protein, UniProt Q9QXT0 21-182, looked up)
chain: RRSQDLHCGACRALVDELEWEIARVDPKKTIQMGSFRINPDGSQSVVEVPYARSEAHLTELLEEVCDRMKEYGEQIDPSTHRKNYVRVVSRNGESSELDLQGIRIDSDISGTLKFACESIVEEYEDELIEFFSREADNVKDKLCSKRTDLCDHALHRSHDEL
B3: His-tagged CNPY2 3C-A mutant (C28A, C31A, C86A) (natural protein, UniProt Q9QXT0 21-182, looked up)
chain: RRSQDLHAGAARALVDELEWEIARVDPKKTIQMGSFRINPDGSQSVVEVPYARSEAHLTELLEEVADRMKEYGEQIDPSTHRKNYVRVVSRNGESSELDLQGIRIDSDISGTLKFACESIVEEYEDELIEFFSREADNVKDKLCSKRTDLCDHALHRSHDEL

What was measured:
Experiment in all cases: ITC
[1] = target: B2
[2] = target: B3
[3] = target: B1
CNPY2 [4] = target: T1, CNPY2 (UniProt Q9Y2B0)
T1 chain: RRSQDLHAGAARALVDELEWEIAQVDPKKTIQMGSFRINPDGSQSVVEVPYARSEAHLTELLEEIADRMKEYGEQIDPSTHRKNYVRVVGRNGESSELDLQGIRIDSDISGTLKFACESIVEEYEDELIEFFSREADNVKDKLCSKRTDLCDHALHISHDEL

CNPY2 [5] = target: T2, CNPY2 (UniProt Q9Y2B0)
T2 chain: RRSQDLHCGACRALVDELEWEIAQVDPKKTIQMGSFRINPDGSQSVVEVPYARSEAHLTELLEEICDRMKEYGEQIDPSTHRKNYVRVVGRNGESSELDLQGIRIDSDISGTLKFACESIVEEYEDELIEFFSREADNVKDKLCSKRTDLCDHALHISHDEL

Question: What does the source list for B1?
Answer: stoichiometry N [1]: 1.16; stoichiometry N [2]: 1.04

Question: How did the Kd [3] turn out when B2 was run?
Answer: Its Kd is 13.2 µM.

Question: For B3, which Kd [3] is on record?
Answer: The Kd was 7.5 µM.

B4: PERK LD (protein)
chain: AGRARGLPAPTAEAAFGLGAAAAPTSATRVPAAGAVAAAEVTVEDAEALPAAAGEQEPRGPEPDDETELRPRGRSLVIISTLDGRIAALDPENHGKKQWDLDVGSGSLVSSSLSKPEVFGNKMIIPSLDGALFQWDQDRESMETVPFTVESLLESSYKFGDDVVLVGGKSLTTYGLSAYSGKVRYICSALGCRQWDSDEMEQEEDILLLQRTQKTVRAVGPRSGNEKWNFSVGHFELRYIPDMETRAGFIESTFKPNENTEESKIISDVEEQEAAIMDIVIKVSVADWKVMAFSKKGGHLEWEYQFCTPIASAWLLKDGKVIPISLFDDTSYTSNDDVLEDEEDIVEAARGATENSVYLGMYRGQLYLQSSVRISEKFPSSPKALESVTNENAIIPLPTIKWKPLIHSPSRTPVLVGSDEFDKCLSNDKFSHEEYSNGALSILQYPYDNGYYLPYYKRERNKRSTQITVRFLDNPHYNKNIRKKD
Question: B4 was tested. Which Kd (CNPY2 [4]) did it give?
Answer: Its Kd is 7.5 µM.

Question: What about the Kd (CNPY2 [5]) of the same binder?
Answer: Its Kd is 13.2 µM.
